Data on 59 variants can be found in the MegaScale stability set (Tsuboyama et al. 2023).

B1: HHH_rd2_0155 (parent)
chain: PPDDERKKAEKAARSGNEEKAREILERLGYSEDEARELAKRLR

Variants of B1 are the subject of this data set. Description: folding stability dG (cDNA display proteolysis); higher = more stable. The conditions noted are these: PBS, room temperature.
PPDDERKKAEKHARSGNEEKAREILERLGYSEDEARELAKRLR: the “folding stability dG” value was determined as 1.9 kcal/mol.

With PPDDERKKAEKDARSGNEEKAREILERLGYSEDEARELAKRLR, the “folding stability dG” value is 0.919 kcal/mol.

Consider PPDDERKKAEKGARSGNEEKAREILERLGYSEDEARELAKRLR, for which the “folding stability dG” value turned out to be 1.03 kcal/mol. The same measure for PPDDERKKVEKAARSGNEEKAREILERLGYSEDEARELAKRLR: 1.29 kcal/mol. The same measure for PPDDERKKQEKAARSGNEEKAREILERLGYSEDEARELAKRLR: 0.885 kcal/mol; for PPDDERKKTEKAARSGNEEKAREILERLGYSEDEARELAKRLR: 1.05 kcal/mol; for PPDDERKKIEKAARSGNEEKAREILERLGYSEDEARELAKRLR: 1.25 kcal/mol.

Regarding PPDDERKKPEKAARSGNEEKAREILERLGYSEDEARELAKRLR, the “folding stability dG” value worked out at 1.13 kcal/mol. The same measure for PPDDERKKSEKAARSGNEEKAREILERLGYSEDEARELAKRLR: 1.02 kcal/mol.

On to PPDDERKKWEKAARSGNEEKAREILERLGYSEDEARELAKRLR, for which the “folding stability dG” value came out at 1.53 kcal/mol. The same measure for PPDDERKKNEKAARSGNEEKAREILERLGYSEDEARELAKRLR: 0.839 kcal/mol. For the variant PPDDERKKREKAARSGNEEKAREILERLGYSEDEARELAKRLR, the “folding stability dG” value is 0.946 kcal/mol. The same measure for PPDDERKKHEKAARSGNEEKAREILERLGYSEDEARELAKRLR: 1.18 kcal/mol; for PPDDERKKLEKAARSGNEEKAREILERLGYSEDEARELAKRLR: 1.33 kcal/mol.

With PPDDERKKDEKAARSGNEEKAREILERLGYSEDEARELAKRLR, the “folding stability dG” value was found to be 0.819 kcal/mol. Regarding PPDDERKKCEKAARSGNEEKAREILERLGYSEDEARELAKRLR, the “folding stability dG” value worked out at 1.45 kcal/mol.

With PPDDERKKMEKAARSGNEEKAREILERLGYSEDEARELAKRLR, the “folding stability dG” value turned out to be 1.05 kcal/mol. Consider PPDDERKKFEKAARSGNEEKAREILERLGYSEDEARELAKRLR, for which the “folding stability dG” value came to 1.27 kcal/mol. As to PPDDERKKKEKAARSGNEEKAREILERLGYSEDEARELAKRLR, the “folding stability dG” value amounted to 0.809 kcal/mol. PPDDERKKGEKAARSGNEEKAREILERLGYSEDEARELAKRLR: the “folding stability dG” value stood at 1.13 kcal/mol. The same measure for PPDDERKKEEKAARSGNEEKAREILERLGYSEDEARELAKRLR: 1.03 kcal/mol; for PPDDERKKYEKAARSGNEEKAREILERLGYSEDEARELAKRLR: 1.47 kcal/mol; for PPDDYRKKAEKAARSGNEEKAREILERLGYSEDEARELAKRLR: 1.81 kcal/mol.

Regarding PPDDEIKKAEKAARSGNEEKAREILERLGYSEDEARELAKRLR, the “folding stability dG” value turned out to be 2.63 kcal/mol. The same measure for PPDDEEKKAEKAARSGNEEKAREILERLGYSEDEARELAKRLR: 1.54 kcal/mol.

On to PPDDEVKKAEKAARSGNEEKAREILERLGYSEDEARELAKRLR, for which the “folding stability dG” value was 2.27 kcal/mol. The same measure for PPDDEPKKAEKAARSGNEEKAREILERLGYSEDEARELAKRLR: 0.99 kcal/mol; for PPDDEYKKAEKAARSGNEEKAREILERLGYSEDEARELAKRLR: 3.31 kcal/mol. Regarding PPDDEAKKAEKAARSGNEEKAREILERLGYSEDEARELAKRLR, the “folding stability dG” value is 1.63 kcal/mol. With PPDDEWKKAEKAARSGNEEKAREILERLGYSEDEARELAKRLR, the “folding stability dG” value is 3.4 kcal/mol. The same measure for PPDDEMKKAEKAARSGNEEKAREILERLGYSEDEARELAKRLR: 3.24 kcal/mol; for PPDDEQKKAEKAARSGNEEKAREILERLGYSEDEARELAKRLR: 1.73 kcal/mol. With PPDDENKKAEKAARSGNEEKAREILERLGYSEDEARELAKRLR, the “folding stability dG” value was determined as 1.17 kcal/mol. The same measure for PPDDEDKKAEKAARSGNEEKAREILERLGYSEDEARELAKRLR: 0.9 kcal/mol. On to PPDDEFKKAEKAARSGNEEKAREILERLGYSEDEARELAKRLR, for which the “folding stability dG” value stood at 3.38 kcal/mol. On to PPDDEHKKAEKAARSGNEEKAREILERLGYSEDEARELAKRLR, for which the “folding stability dG” value turned out to be 2.1 kcal/mol. As to PPDDEGKKAEKAARSGNEEKAREILERLGYSEDEARELAKRLR, the “folding stability dG” value came out at 1.11 kcal/mol. Turning to PPDDESKKAEKAARSGNEEKAREILERLGYSEDEARELAKRLR, the “folding stability dG” value was 1.3 kcal/mol.

With PPDDETKKAEKAARSGNEEKAREILERLGYSEDEARELAKRLR, the “folding stability dG” value turned out to be 1.54 kcal/mol. The same measure for PPDDELKKAEKAARSGNEEKAREILERLGYSEDEARELAKRLR: 3 kcal/mol; for PPDDEKKKAEKAARSGNEEKAREILERLGYSEDEARELAKRLR: 1.75 kcal/mol.

With PPDDERKKAAKAARSGNEEKAREILERLGYSEDEARELAKRLR, the “folding stability dG” value was 2.3 kcal/mol.

On to PPDDERKKARKAARSGNEEKAREILERLGYSEDEARELAKRLR, for which the “folding stability dG” value amounted to 2.03 kcal/mol. The same measure for PPDDERKKAFKAARSGNEEKAREILERLGYSEDEARELAKRLR: 2.16 kcal/mol. With PPDDERKKADKAARSGNEEKAREILERLGYSEDEARELAKRLR, the “folding stability dG” value stood at 1.22 kcal/mol. The same measure for PPDDERKKAQKAARSGNEEKAREILERLGYSEDEARELAKRLR: 1.93 kcal/mol; for PPDDERKKAKKAARSGNEEKAREILERLGYSEDEARELAKRLR: 1.78 kcal/mol; for PPDDERKKAIKAARSGNEEKAREILERLGYSEDEARELAKRLR: 2.4 kcal/mol. As for PPDDERKKAVKAARSGNEEKAREILERLGYSEDEARELAKRLR, the “folding stability dG” value stood at 2.23 kcal/mol.

Take PPDDERKKAGKAARSGNEEKAREILERLGYSEDEARELAKRLR: the “folding stability dG” value amounted to 1.58 kcal/mol.

Consider PPDDERKKATKAARSGNEEKAREILERLGYSEDEARELAKRLR, for which the “folding stability dG” value turned out to be 1.82 kcal/mol. PPDDERKKANKAARSGNEEKAREILERLGYSEDEARELAKRLR: the “folding stability dG” value worked out at 1.29 kcal/mol. The same measure for PPDDERKKAMKAARSGNEEKAREILERLGYSEDEARELAKRLR: 2.33 kcal/mol; for PPDDERKKAWKAARSGNEEKAREILERLGYSEDEARELAKRLR: 2.31 kcal/mol. As for PPDDERKKAYKAARSGNEEKAREILERLGYSEDEARELAKRLR, the “folding stability dG” value came out at 2.44 kcal/mol. Regarding PPDDERKKAPKAARSGNEEKAREILERLGYSEDEARELAKRLR, the “folding stability dG” value worked out at 1.05 kcal/mol. The same measure for PPDDERKKALKAARSGNEEKAREILERLGYSEDEARELAKRLR: 2.38 kcal/mol; for PPDDERKKAHKAARSGNEEKAREILERLGYSEDEARELAKRLR: 1.75 kcal/mol.

Turning to PPDDERKKASKAARSGNEEKAREILERLGYSEDEARELAKRLR, the “folding stability dG” value turned out to be 1.66 kcal/mol.
